For the assay, the target named is recombinant 190 kDa hHARE expressed in Flp-In 293 cells (human).

As to “mouse IgG (polyclonal serum or antibody)”, the endocytosis of ^125I-HA by 190hHARE Flp-In 293 cell lines at 37° C. (% of the control value) came out at 103.

The values above are taken from patent publication US20050287638A1.
